From US20210238252A1 come the findings set out here.

This test deals with Fc receptor CD16 (UniProt P08637). The test is described as follows: cell-based or functional assay.
Fc receptor CD16, sequence (P08637 17-254 limits assumed): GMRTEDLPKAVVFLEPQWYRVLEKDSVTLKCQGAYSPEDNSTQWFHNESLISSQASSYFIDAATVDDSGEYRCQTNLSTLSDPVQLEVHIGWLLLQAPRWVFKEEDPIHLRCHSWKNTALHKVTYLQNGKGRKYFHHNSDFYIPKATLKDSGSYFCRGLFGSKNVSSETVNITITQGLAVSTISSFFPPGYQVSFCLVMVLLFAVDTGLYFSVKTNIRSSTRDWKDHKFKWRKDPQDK

For IgGb12 (antibody), the IC50, ADCC: killing of BaL-infected CEM.NKR.CCR5+ Luc cells by KHYG-1 CD16+ NK cells was determined as 0.0662 µg/mL.
